Columns and labels:
[1] = system: T1, 5-FAM-SFAStide-A (Src-Family kinase Artificial Substrate peptide)
T1 sequence: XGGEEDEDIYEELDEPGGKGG

[2] = system: T2, SAStide-Cy5 (Syk Artificial Substrate peptide conjugated with Cy5)
T2 sequence: GGDEEDYEEPDEPGGCGG

Substance | TR-LRET emission (5-FAM fluorescence signal) in the in vitro kinase reaction with Syk only [1] | TR-LRET emission (Cy5 fluorescence signal) over the time course of an in vitro kinase reaction [2] | ELISA-based chemifluorescence (anti-phosphotyrosine 4G10, HRP secondary, Amplex Red) of an in vitro kinase reaction [2]
Syk-His6 (His6-tagged spleen tyrosine kinase) | with minimal bleed through or background interference from the fluorophore attached to the other biosensor | TR-LRET emission spectra for each respective biosensor displayed an increase in the conjugated dye's fluorescence signal | –
Syk-EGFP | – | – | the ELISA-based assay displayed increasing fluorescent signal over time for the appropriately match substrates
